In the supplement of paper PMC9170038:

Test system: K4 kissing-loop RNA reporter
Experiment: apparent KD of K4 kissing-loop reporter; higher = weaker reporter binding
Conditions: Eterna round: R107
Experimental: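 RNA-MaP round R107: designed RNA switches with theophylline, tryptophan, arginine or FMN aptamers are transcribed on-chip within common flanks. They are titrated with a labelled K4 kissing-loop RNA reporter in RNA-MaP buffer (100 mM Tris pH 7.5, 80 mM KCl, 4 mM MgCl2), without ligand or with the indicated ligand. Median apparent KD per design.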

[1] = input ligand: theophylline 20 uM
[2] = input ligand: tryptophan 2.4 mM
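Note: bound reporter read as fluorescence of individual clusters on recovered sequencing chips by microscopy, with normalized cluster intensities fitted with a binding model.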

Sequence | apparent KD of K4 kissing-loop reporter (input ligand: FMN 200 uM) [nM] | apparent KD of K4 kissing-loop reporter (input ligand: arginine 13.2 mM) [nM] | apparent KD of K4 kissing-loop reporter (input ligand: none) [nM] | apparent KD of K4 kissing-loop reporter [1] [nM] | apparent KD of K4 kissing-loop reporter [2] [nM]
AUUCGUUUAUGUGAUACCAGACUUUGCAGUGAUGUUGCAUUUAUUUUUGAAUUUUAGUUUGUCCCUUGGCAGCACUAUUUAUUUA [JR_SSTheophyB_Sub005] | 44.1 | 87.8 | 50.5 | 83.1 | 42.3
UGACUGGAUGGAAGGAGCGCUAAACUCCUAGUGAUGUUAGGGACACGAGACAAAGUCUCGAAGCAGGUAGGUCGCCAUCUAGUCU [FiskerMod 13 - Jieux - Same State - Arginine B] | 219 | 156 | 160 | 352 | 166
AGCAUUUUCAGAAGGAGCGUGAAUUAUUCUUAAGUAUAUUAUACGAGUGAUGUUCGUAUUUCACAGGUAGGUCGCUGAUAUAGCA [JR_SSArginiB_Sub003] | 57.4 | 89.2 | 54.6 | 76.2 | 46.8
CUUAAGGAGUGUCGUGCCGGACACUGGGAAGGAGCGCAAUUCUUUGCAGGUAGGUCGCCCAGUGAUGUUGGGUCUCGCUGUCGAA [KL-XArg-A20] | 139 | 253 | 204 | 376 | 285
UGAUACCAGACUGAUACCAGCAGUGAUGUUGCUGAUAAGGGUAGAGUCAAAGACUCUACCUGCCCUUGGCAGCAGUCUGGUAUCU [TheoBX 14 #SwitchBubble #StaticStem] | 167 | 146 | 167 | 173 | 156
AUGCGACGUGCGGCCGCCACUCGGAUGCGAGUGAUGUUCGCGGGCCGGCCGCAAGGCCGGCAUUCGAGGACCGGGCAUCGGUGUA [#2 Same State - Tryptophan B Attempt #1 (HarryS)] | 420 | 496 | 546 | 493 | 116
GGUAGCUAGGCAGGAUAUAGCUAGUGGAGUGAUGUUCCACCAUACACGAGUGAUGUUCGUAACCUGCUAGAAGGGCCUAGCUACC | 114 | 125 | 144 | 135 | 138
AGGAGCGUGGGAUGUAAAUCGCACGCUCCUCGAGGACCGGUACGGCCGCCACUCGCUCGCGCCGAGUGAUGUUCGGCCGGCGAAC [#2 Same State - Tryptophan A Attempt #13 (HarryS)] | 243 | 325 | 225 | 209 | 446
GACCGGCCGACGAGUGAUGUUCGAUGGGAAGGAGCGCGAAGAAAUGCAGGUAGGUCGCCCUAAGUAAUUGAAACGGCCGGAUUAU [2.)] | 137 | 143 | 128 | 212 | 102
GUCUCGAGUGAUGUUCGGGUCGUUUGGGAAGGAGCGCCCGGAAGGGCAGGUAGGUCGCCCGGACCGCGCGGGCAACCGCGCGGCC [#2 Same State - Arginine A Attempt #12 (HarryS)] | 228 | 162 | 217 | 212 | 192
AGAUUCGACACGGCCGCCACUCGUGGUGGAUUAUCCUAUGUAAGACAUGAGUGAUGUUCAUGUACGAGGACCGGGUGUUGAGUCU [KL-XTryp-B5 #analogue] | 496 | 403 | 488 | 568 | 272
AAAAUAAAUCAGUGAUGUUGGUAUCUGGAUACCAGCGAUAAUCAUCGCCCUUGGCAGCCAUGGACGUACAAAAUAAGUACGUCCU [MatMod 17 - Jieux - Same State - Theophylline A] | 242 | 157 | 180 | 228 | 193
UGACUACAAAAGGAAUAAUCCUAGUGAUGUUAGGAUAUGCUGAUAAGCAGAAGGAACUGAGAUCGAAAGAUCUCAAAUGUAGUCU [FmnAX 25 Mat Inspired #SwitchBubble #StaticStem #K4Early] | 116 | 89.1 | 92.3 | 103 | 93
GGUCGAGUGAUGUUCGAUGUUAUGCAUUCAGAGGAUAUAGGAUUAGCUAGAAGGCUGAAUCAAUCUUCGAGUGAUGUUCGAGGAU [Same State FMN A GF 9] | 133 | 108 | 115 | 123 | 112
UGAUACCAGGCGGCCGCCACUCCUACAGGUCAAAGACCUGUAAAGCUGGUUCUCCAGUGAUGUUGGAGGACCGGGCCUGGUAUCU [FiskerMod 29 - Jieux - Exclusion - Tryptophan B] | 206 | 156 | 179 | 150 | 428
UGUCAUUGGUCGGCCGCCACUAGAAGGUCAAAGACCAUAGAGUGAUGUUCUAAGACGAAAGUCACUAGGACCGGGACCGAUGACU [TrypBS 1 #SwitchBubble #K4Middle] | 744 | 1080 | 899 | 946 | 207
GGAUAGGAUAGAGGAUAUGGUUUAGGCAAGAAUAACUUGUCAUGUAAAUCCAUGAGGAGUGAUGUUCCAGAAGGCUGUCCUAUCG [MatMod 8 - Jieux - Exclusion - FMN B] | 576 | 123 | 121 | 142 | 91.8
CGUAGAUACUGAGGAUAUCAGAAAUCUGAUAUCAUCAGAGGUCUGAGUGAUGUUCAGAUGCGACUCUGAGAAGGCAGUAGGAGUC [FMN B Ex t2] | 134 | 107 | 131 | 123 | 115
UCCAGCAGUACUGAUACCAGACUGCAUGUAGUGAUGUUGCAUAAGGGCAUAGAUGUCUCAGUCCCUUGGCAGCGGUACUGUUGCA [#09 K4 Theophylline B Same State] | 379 | 294 | 325 | 251 | 286
AGUGAUGUUCCUCCUCUUGGUCUUGGUGGGCGAGGACCGGUACGGCCGCCACUCGAUGUGGGAGUGAUGUUUCCAUAUGAUGUUU [Tryptophan A] | 568 | 580 | 621 | 675 | 401
UUUUUGGAGAAUUAUAGUGAUGUUAUGAAGGAGGAUAUCUAAAGAUGGAGAAGGUUUAAUAGUUAAGGGAUGGAGGGUGGGUGGG [ExFMNA.Q] | 372 | 180 | 320 | 208 | 229

Sequence | apparent KD of K4 kissing-loop reporter (input ligand: FMN 200 uM) [nM] | apparent KD of K4 kissing-loop reporter (input ligand: arginine 13.2 mM) [nM] | apparent KD of K4 kissing-loop reporter (input ligand: none) [nM] | apparent KD of K4 kissing-loop reporter [1] [nM] | apparent KD of K4 kissing-loop reporter [2] [nM]
UGGGAUGUUAAAGGAUAUAGCAGGUGAUAUAAGAAAGUGAGUGAUGUUUAUGUAGAUGAUGAUAUGUUAGAAGGUUAACAAAACG [abcdefghi] | 427 | 258 | 340 | 318 | 282
CACUUACGUAGUGAUGUUACGAUCUCUGAUACCAGACAACUCUAAGUCCCUUGGCAGCAGUCAUUUUGCUUAUUAUUUACUCAAA [JR_ExcTheophyA_Sub017] | 647 | 597 | 730 | 663 | 456
GAGAGCCCUGUAGGAUAUGAGUCUAGUGAUGUUAGGCGGUCCAUGCGCGUGGCGCGUUAUGCCCUUUUAGAAGGACAGGGCUCUC [#2 Exclusion - FMN B Attempt #20 (HarryS)] | 105 | 67.2 | 80.9 | 80.1 | 80
UUAUAUACGAGUGAUGUUCGUUAUUUAUCAGAGGAUAUGCUUAAAUGCAGAAGGCUGUUUUUCUAUUUGAUAUUAAAUUUUAUAA [JR_Nu3_ExcFMNA_Sub027] | 81.6 | 89.3 | 69.6 | 81.1 | 58.1
UCGGGCGGCUGAAGGAGCGGGCGGGCCCGAGUGAUGUUCGGGUGGGCUGUGAGGCCCGGAGCCCAGGUAGGUCGCGGUUCCGCCC [#2 Same State - Arginine B Attempt #28 (HarryS)] | 262 | 181 | 157 | 168 | 158
AAGUGUGUGGCGGCCGCCACUAGUAUCCAGUGAUGUUGGAGAUAUCACGUAAGUGAUAUCCAACAUAGGACCGGGCCAUAUAGAA [Same State - Tryptophan B (Freestyle 17)] | 145 | 78.3 | 101 | 189 | 93.1
GCCUACGUAGCAGGAUAUAGGUAAGUGAGUGAUGUUCAAGAGUUCUGGAGUGAUGUUCCAAUCUGACUAGAAGGGCUACGUAGGC | 58.4 | 45.2 | 79.3 | 57.3 | 54.1
GGAGUCCCGUUAGAUUGUGUAGAUACAAGACGAGGACCGGUACGGCCGCCACUCGCCAUCGUCCAGUGAUGUUGGGCGUCACGGG [theeternabot_sameState_KL_Trp_A_30] | 262 | 179 | 235 | 227 | 219
CUCAAACCGUGGGCAUUUCGCAAAGUAGAUACCAGUCGCAACGGUGACCCUUGGCAGCUAGUAAAGUGAUGUUUUAUCGGCACCA [theeternabot_exclusion_KL_Theo_A_35] | 78.4 | 80.4 | 78 | 78.6 | 69.1
GCGUAGGAAGAAGGAUAUCACAGGAUGCCACGUUAGUGAUGUUAAUUUGGUUCAGCGCGAUUCUGAUGAGAAGGUCUUUUAUGAU [theeternabot_sameState_KL_FMN_B_47] | 220 | 300 | 295 | 205 | 210
GGGAUAGGAUCAGUGAUGUUGGUCCCAGAUACCAGACAAAGUCACGUCCCUUGGCAGCUGAUGAUCGCUGACGACCGGCCUCCAA [theeternabot_sameState_KL_Theo_A_7] | 259 | 218 | 262 | 219 | 256
AAGGCGUCGAGUUUGGUGGCGCCAACAGAUACCAGAUUACCUCCAAUCCCUUGGCAGCUGGCUUGAGAGUGAUGUUUUCAAAAGU [theeternabot_sameState_KL_Theo_A_33] | 532 | 447 | 627 | 528 | 349
UGUACCGAGUCAGGAUAUGGUAUACCGGAAACGGACCAGUGAUGUUGGAGGCGAAAGCCAUAAAAUCCAGAAGGGACUUGGUACU [FmnBS 19 #SwitchBubble #StaticStem #DoubleMagnetSystem] | 223 | 569 | 614 | 893 | 411
UAUUAAUUGACGGCCGCCACUAUUGUGAUUUAUUUGUUUGAGUGAUGUUUUGAUGUUUGAUUUUGUAGGACCGGGUUAUGUGUUA [zwzcmullin] | 918 | 768 | 954 | 816 | 711
CUGUACAUCUCGGCCGCCACUGACCUAAGUGAUGUUAGGAAUGAAACCUAGUGAUGUUAGCAAACCAGGACCGGGAGGUGUGCAG [KL-SSTryp-B4 #Double Kiss] | 110 | 33.4 | 83.2 | 40.2 | 51.8
CGCUUUGCGUCCGGUAGUGAUGUUACCAAGCGAGGACCGGUACGGCCGCCACUCGAGUGACAGACGUACUGGUAUCACCCGCUUU | 223 | 229 | 248 | 235 | 208
AAAAUUGCGGUCGAAAGAACUUCUUGCAUACGAGGACCGGUACGGCCGCCACUCGAGUCAAGUGAUGUUUGAUAAUCUAUUAUUA [JR_ExcTryptoA_Sub012] | 151 | 225 | 215 | 296 | 212
AGCUCAGCGUGACUCGAUAAGAGUCACAAACGAGGACCGGUACGGCCGCCACUCGAAAUAAAGGGAGUGAUGUUCUCGCUGAGCA [#SwitchBubble 4 #StaticStem #K4Late] | 641 | 300 | 370 | 274 | 625
AUUUUGUUGUCAGGAUAUUAGUAUGGUUUUGGUUUGUUAGUGAUGUUGAUGGUUUGUUUAUGUAUUUAAGAAGGGAUUUAGCGGU [swwsgumullin] | 693 | 463 | 534 | 573 | 424
UGUGUACCGGGAAGGAGCGUGAAUGAUAAUGGAUAUAGUGAUGUUAUAUAUACGAACGAAUCGCAGGUAGGUCGCCCGGAUCCCU [SSArgB.X] | 808 | 494 | 639 | 559 | 576
